Measurements from patent US20160257763A1.

target: FcRn; assay: SPR pH 6.0, Ab captured by goat anti-human IgG, FcRn injected
Sequence (P55899 24-297, chain 1 of 2): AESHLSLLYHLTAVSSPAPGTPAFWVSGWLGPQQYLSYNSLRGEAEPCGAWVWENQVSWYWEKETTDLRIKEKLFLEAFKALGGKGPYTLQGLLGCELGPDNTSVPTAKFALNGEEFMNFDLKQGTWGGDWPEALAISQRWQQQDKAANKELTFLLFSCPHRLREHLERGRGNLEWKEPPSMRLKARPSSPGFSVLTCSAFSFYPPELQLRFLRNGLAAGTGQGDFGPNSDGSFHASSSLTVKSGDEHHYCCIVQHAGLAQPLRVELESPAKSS
Sequence (P61769 21-119, chain 2 of 2, further chain): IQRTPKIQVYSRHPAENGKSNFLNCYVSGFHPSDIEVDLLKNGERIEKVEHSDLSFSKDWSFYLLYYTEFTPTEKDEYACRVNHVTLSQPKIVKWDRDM

Row | Substance | Kd [µM]
1 | L351Y_F405A_Y407V / T366L_K392M_T394W (antibody) | 5
2 | T350V_L351Y_F405A_Y407V / T350V_T366L_K392L_T394W (antibody) | 3.9
3 | T350V_L351Y_F405A_Y407V / T350V_T366L_K392M_T394W (antibody) | 4.3
4 | T350V_L351Y_S400E_F405A_Y407V / T350V_T366L_N390R_K392M_T394W (antibody) | 5
5 | Y349C_T350V_F405A_Y407V / T350V_S354C_T366L_K392M_T394W (antibody) | 4.1
